Measurements published in patent US20240301076A1 (CEPHALON, published 2024).

T1: human CXCR2 (human, UniProt P25025 1-360)
T1 construct: also called CXC chemokine receptor 2; hCXCR2
T1 sequence: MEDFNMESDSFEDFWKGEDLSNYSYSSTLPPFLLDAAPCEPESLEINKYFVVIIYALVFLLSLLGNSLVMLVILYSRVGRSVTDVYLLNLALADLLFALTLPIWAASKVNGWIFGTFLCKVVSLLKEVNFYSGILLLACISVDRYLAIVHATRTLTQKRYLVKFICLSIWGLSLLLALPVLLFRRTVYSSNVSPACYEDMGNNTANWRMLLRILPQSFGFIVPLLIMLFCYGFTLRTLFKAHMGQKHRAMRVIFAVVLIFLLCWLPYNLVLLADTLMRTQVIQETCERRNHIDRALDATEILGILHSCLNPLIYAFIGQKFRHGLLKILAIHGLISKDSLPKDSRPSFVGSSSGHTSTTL


Each binder was assayed against T1, human CXCR2 (assay: flow cytometry, CXCR2-transfected Expi293F cells).
Method: Harvested cells were resuspended in FACS buffer (1×PBS+0.5% (w/v) bovine serum albumin (BSA)+2 mM EDTA pH 7.2). Approximately 2×10⁵ cells were added per well in a 96-well round-bottomed plate. Cells were pelleted by centrifugation at 400 g for 5 mins at 4° C. and supernatants discarded. 25 μL of each test antibody or control antibody was added to the cells and incubated for 30 minutes at 4° C. Cells were washed twice in 100 μL FACS buffer followed by centrifugation at 400 g for 5 mins at 4° C.
For detection, 50 μL of secondary antibody (Table 2) was added to relevant samples. Commercially available antibodies that bound to transfected CXCR family members were used as positive controls to ensure that the cells were expressing the receptors. Cells were washed twice in 200 μL of FACS buffer followed by centrifugation at 400 g for 5 mins at 4° C. Before sample acquisition, cells were resuspended in 100 μL of FACS buffer. Samples were acquired using the high throughput sampler on a FACSCanto™ II cytometer (Beckton-Dickinson).
Each variant heavy chain was co-expressed with the parental light chain and vice versa.

Binder	Fold change in binding relative to BKO-4A8 [fold]
BKO-4A8 variant VH G52aD (antibody, human IgG4 S228P, lambda, V domains shown, IgG4 S228P, lambda; parental light chain; also called 4A8 VH G52aD) VH: EVQLLESGGGLVQPGGSLRLSCAASGFTFSSSTMSWVRQAPGKGLEWVSAISDRGRNTYYADSVKGRFTISRDNSRNTLYLQMNSLRAEDTAVYYCAIQMGYWGQGILVTVSS VL: QSALTQPPSASGSPGQSVTISCIGTSSDVGGYNYVSWYQQHPDKAPKLMIYEVNKRPSGVPDRFSGSKSGNTASLTVSGLQAEDEADYYCSSYAGNNNFGVFGGGTKLTVLG	1.18
BKO-4A8 variant VH Y102S (antibody, human IgG4 S228P, lambda, V domains shown, IgG4 S228P, lambda; parental light chain; also called 4A8 VH Y102S) VH: EVQLLESGGGLVQPGGSLRLSCAASGFTFSSSTMSWVRQAPGKGLEWVSAISGRGRNTYYADSVKGRFTISRDNSRNTLYLQMNSLRAEDTAVYYCAIQMGSWGQGILVTVSS VL: QSALTQPPSASGSPGQSVTISCIGTSSDVGGYNYVSWYQQHPDKAPKLMIYEVNKRPSGVPDRFSGSKSGNTASLTVSGLQAEDEADYYCSSYAGNNNFGVFGGGTKLTVLG	1.5
BKO-4A8 variant VH G101D (antibody, human IgG4 S228P, lambda, V domains shown, IgG4 S228P, lambda; parental light chain; also called 4A8 VH G101D) VH: EVQLLESGGGLVQPGGSLRLSCAASGFTFSSSTMSWVRQAPGKGLEWVSAISGRGRNTYYADSVKGRFTISRDNSRNTLYLQMNSLRAEDTAVYYCAIQMDYWGQGILVTVSS VL: QSALTQPPSASGSPGQSVTISCIGTSSDVGGYNYVSWYQQHPDKAPKLMIYEVNKRPSGVPDRFSGSKSGNTASLTVSGLQAEDEADYYCSSYAGNNNFGVFGGGTKLTVLG	1
BKO-4A8 variant VH S32H (antibody, human IgG4 S228P, lambda, V domains shown, IgG4 S228P, lambda; parental light chain; also called 4A8 VH S32H) VH: EVQLLESGGGLVQPGGSLRLSCAASGFTFSSHTMSWVRQAPGKGLEWVSAISGRGRNTYYADSVKGRFTISRDNSRNTLYLQMNSLRAEDTAVYYCAIQMGYWGQGILVTVSS VL: QSALTQPPSASGSPGQSVTISCIGTSSDVGGYNYVSWYQQHPDKAPKLMIYEVNKRPSGVPDRFSGSKSGNTASLTVSGLQAEDEADYYCSSYAGNNNFGVFGGGTKLTVLG	0.86
BKO-4A8 variant VH R53S (antibody, human IgG4 S228P, lambda, V domains shown, IgG4 S228P, lambda; parental light chain; also called 4A8 VH R53S) VH: EVQLLESGGGLVQPGGSLRLSCAASGFTFSSSTMSWVRQAPGKGLEWVSAISGSGRNTYYADSVKGRFTISRDNSRNTLYLQMNSLRAEDTAVYYCAIQMGYWGQGILVTVSS VL: QSALTQPPSASGSPGQSVTISCIGTSSDVGGYNYVSWYQQHPDKAPKLMIYEVNKRPSGVPDRFSGSKSGNTASLTVSGLQAEDEADYYCSSYAGNNNFGVFGGGTKLTVLG	1
BKO-4A8 variant VH S32W (antibody, human IgG4 S228P, lambda, V domains shown, IgG4 S228P, lambda; parental light chain; also called 4A8 VH S32W) VH: EVQLLESGGGLVQPGGSLRLSCAASGFTFSSWTMSWVRQAPGKGLEWVSAISGRGRNTYYADSVKGRFTISRDNSRNTLYLQMNSLRAEDTAVYYCAIQMGYWGQGILVTVSS VL: QSALTQPPSASGSPGQSVTISCIGTSSDVGGYNYVSWYQQHPDKAPKLMIYEVNKRPSGVPDRFSGSKSGNTASLTVSGLQAEDEADYYCSSYAGNNNFGVFGGGTKLTVLG	0.83
BKO-4A8 variant VL E50D (antibody, human IgG4 S228P, lambda, V domains shown, IgG4 S228P, lambda; parental heavy chain; also called 4A8 VL E50D) VH: EVQLLESGGGLVQPGGSLRLSCAASGFTFSSSTMSWVRQAPGKGLEWVSAISGRGRNTYYADSVKGRFTISRDNSRNTLYLQMNSLRAEDTAVYYCAIQMGYWGQGILVTVSS VL: QSALTQPPSASGSPGQSVTISCIGTSSDVGGYNYVSWYQQHPDKAPKLMIYDVNKRPSGVPDRFSGSKSGNTASLTVSGLQAEDEADYYCSSYAGNNNFGVFGGGTKLTVLG	2
BKO-4A8 variant VH Y102K (antibody, human IgG4 S228P, lambda, V domains shown, IgG4 S228P, lambda; parental light chain; also called 4A8 VH Y102K) VH: EVQLLESGGGLVQPGGSLRLSCAASGFTFSSSTMSWVRQAPGKGLEWVSAISGRGRNTYYADSVKGRFTISRDNSRNTLYLQMNSLRAEDTAVYYCAIQMGKWGQGILVTVSS VL: QSALTQPPSASGSPGQSVTISCIGTSSDVGGYNYVSWYQQHPDKAPKLMIYEVNKRPSGVPDRFSGSKSGNTASLTVSGLQAEDEADYYCSSYAGNNNFGVFGGGTKLTVLG	1.3
BKO-4A8 variant VH S32Q (antibody, human IgG4 S228P, lambda, V domains shown, IgG4 S228P, lambda; parental light chain; also called 4A8 VH S32Q) VH: EVQLLESGGGLVQPGGSLRLSCAASGFTFSSQTMSWVRQAPGKGLEWVSAISGRGRNTYYADSVKGRFTISRDNSRNTLYLQMNSLRAEDTAVYYCAIQMGYWGQGILVTVSS VL: QSALTQPPSASGSPGQSVTISCIGTSSDVGGYNYVSWYQQHPDKAPKLMIYEVNKRPSGVPDRFSGSKSGNTASLTVSGLQAEDEADYYCSSYAGNNNFGVFGGGTKLTVLG	1.71
BKO-4A8 variant VL K53A (antibody, human IgG4 S228P, lambda, V domains shown, IgG4 S228P, lambda; parental heavy chain; also called 4A8 VL K53A) VH: EVQLLESGGGLVQPGGSLRLSCAASGFTFSSSTMSWVRQAPGKGLEWVSAISGRGRNTYYADSVKGRFTISRDNSRNTLYLQMNSLRAEDTAVYYCAIQMGYWGQGILVTVSS VL: QSALTQPPSASGSPGQSVTISCIGTSSDVGGYNYVSWYQQHPDKAPKLMIYEVNARPSGVPDRFSGSKSGNTASLTVSGLQAEDEADYYCSSYAGNNNFGVFGGGTKLTVLG	1.4
BKO-4A8 variant VH T33A (antibody, human IgG4 S228P, lambda, V domains shown, IgG4 S228P, lambda; parental light chain; also called 4A8 VH T33A) VH: EVQLLESGGGLVQPGGSLRLSCAASGFTFSSSAMSWVRQAPGKGLEWVSAISGRGRNTYYADSVKGRFTISRDNSRNTLYLQMNSLRAEDTAVYYCAIQMGYWGQGILVTVSS VL: QSALTQPPSASGSPGQSVTISCIGTSSDVGGYNYVSWYQQHPDKAPKLMIYEVNKRPSGVPDRFSGSKSGNTASLTVSGLQAEDEADYYCSSYAGNNNFGVFGGGTKLTVLG	1.3
BKO-4A8 variant VH I51H (antibody, human IgG4 S228P, lambda, V domains shown, IgG4 S228P, lambda; parental light chain; also called 4A8 VH I51H) VH: EVQLLESGGGLVQPGGSLRLSCAASGFTFSSSTMSWVRQAPGKGLEWVSAHSGRGRNTYYADSVKGRFTISRDNSRNTLYLQMNSLRAEDTAVYYCAIQMGYWGQGILVTVSS VL: QSALTQPPSASGSPGQSVTISCIGTSSDVGGYNYVSWYQQHPDKAPKLMIYEVNKRPSGVPDRFSGSKSGNTASLTVSGLQAEDEADYYCSSYAGNNNFGVFGGGTKLTVLG	1.8
BKO-4A8 variant VH M34W (antibody, human IgG4 S228P, lambda, V domains shown, IgG4 S228P, lambda; parental light chain; also called 4A8 VH M34W) VH: EVQLLESGGGLVQPGGSLRLSCAASGFTFSSSTWSWVRQAPGKGLEWVSAISGRGRNTYYADSVKGRFTISRDNSRNTLYLQMNSLRAEDTAVYYCAIQMGYWGQGILVTVSS VL: QSALTQPPSASGSPGQSVTISCIGTSSDVGGYNYVSWYQQHPDKAPKLMIYEVNKRPSGVPDRFSGSKSGNTASLTVSGLQAEDEADYYCSSYAGNNNFGVFGGGTKLTVLG	1.17
BKO-4A8 variant VH S32L (antibody, human IgG4 S228P, lambda, V domains shown, IgG4 S228P, lambda; parental light chain; also called 4A8 VH S32L) VH: EVQLLESGGGLVQPGGSLRLSCAASGFTFSSLTMSWVRQAPGKGLEWVSAISGRGRNTYYADSVKGRFTISRDNSRNTLYLQMNSLRAEDTAVYYCAIQMGYWGQGILVTVSS VL: QSALTQPPSASGSPGQSVTISCIGTSSDVGGYNYVSWYQQHPDKAPKLMIYEVNKRPSGVPDRFSGSKSGNTASLTVSGLQAEDEADYYCSSYAGNNNFGVFGGGTKLTVLG	1.33
BKO-4A8 variant VH R53Q (antibody, human IgG4 S228P, lambda, V domains shown, IgG4 S228P, lambda; parental light chain; also called 4A8 VH R53Q) VH: EVQLLESGGGLVQPGGSLRLSCAASGFTFSSSTMSWVRQAPGKGLEWVSAISGQGRNTYYADSVKGRFTISRDNSRNTLYLQMNSLRAEDTAVYYCAIQMGYWGQGILVTVSS VL: QSALTQPPSASGSPGQSVTISCIGTSSDVGGYNYVSWYQQHPDKAPKLMIYEVNKRPSGVPDRFSGSKSGNTASLTVSGLQAEDEADYYCSSYAGNNNFGVFGGGTKLTVLG	0.64
BKO-4A8 variant VH S32Y (antibody, human IgG4 S228P, lambda, V domains shown, IgG4 S228P, lambda; parental light chain; also called 4A8 VH S32Y) VH: EVQLLESGGGLVQPGGSLRLSCAASGFTFSSYTMSWVRQAPGKGLEWVSAISGRGRNTYYADSVKGRFTISRDNSRNTLYLQMNSLRAEDTAVYYCAIQMGYWGQGILVTVSS VL: QSALTQPPSASGSPGQSVTISCIGTSSDVGGYNYVSWYQQHPDKAPKLMIYEVNKRPSGVPDRFSGSKSGNTASLTVSGLQAEDEADYYCSSYAGNNNFGVFGGGTKLTVLG	1.33
BKO-4A8 variant VH G54D (antibody, human IgG4 S228P, lambda, V domains shown, IgG4 S228P, lambda; parental light chain; also called 4A8 VH G54D) VH: EVQLLESGGGLVQPGGSLRLSCAASGFTFSSSTMSWVRQAPGKGLEWVSAISGRDRNTYYADSVKGRFTISRDNSRNTLYLQMNSLRAEDTAVYYCAIQMGYWGQGILVTVSS VL: QSALTQPPSASGSPGQSVTISCIGTSSDVGGYNYVSWYQQHPDKAPKLMIYEVNKRPSGVPDRFSGSKSGNTASLTVSGLQAEDEADYYCSSYAGNNNFGVFGGGTKLTVLG	1
BKO-4A8 variant VH M34D (antibody, human IgG4 S228P, lambda, V domains shown, IgG4 S228P, lambda; parental light chain; also called 4A8 VH M34D) VH: EVQLLESGGGLVQPGGSLRLSCAASGFTFSSSTDSWVRQAPGKGLEWVSAISGRGRNTYYADSVKGRFTISRDNSRNTLYLQMNSLRAEDTAVYYCAIQMGYWGQGILVTVSS VL: QSALTQPPSASGSPGQSVTISCIGTSSDVGGYNYVSWYQQHPDKAPKLMIYEVNKRPSGVPDRFSGSKSGNTASLTVSGLQAEDEADYYCSSYAGNNNFGVFGGGTKLTVLG	1.6
